Experimental data: paper PMC2830281

How the values were obtained:
Assay in all cases: latex bead solid phase immunoassay read by flow cytometry
[1] = biological target: mouse IgG1 (native, on latex beads) (mouse)
[2] = biological target: mouse IgG2b (native, on latex beads) (mouse)
[3] = biological target: mouse IgG3 (native, on latex beads) (mouse)
[4] = biological target: mouse IgM (native, on latex beads) (mouse)
[5] = biological target: mouse IgA (native, on latex beads) (mouse)
[6] = biological target: mouse IgG2a (native, on latex beads) (mouse)
Sequence of mouse IgG2a (native, on latex beads) (mouse) (P01863 whole entry, chain 1 of 2, other chains not shown): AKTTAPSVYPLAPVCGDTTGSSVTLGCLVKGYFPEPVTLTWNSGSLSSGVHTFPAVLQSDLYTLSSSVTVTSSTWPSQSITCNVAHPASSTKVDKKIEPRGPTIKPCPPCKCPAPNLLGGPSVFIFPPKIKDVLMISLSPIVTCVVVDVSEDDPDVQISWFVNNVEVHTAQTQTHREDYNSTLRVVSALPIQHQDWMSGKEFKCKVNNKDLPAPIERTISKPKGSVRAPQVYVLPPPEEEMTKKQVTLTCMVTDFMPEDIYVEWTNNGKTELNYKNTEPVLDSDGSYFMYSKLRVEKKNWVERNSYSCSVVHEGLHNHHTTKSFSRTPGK

Measured: fold lower mean fluorescence intensity than beads with catfish IgM

Sequence of mouse IgM (native, on latex beads) (mouse) (P01872 whole entry, chain 1 of 3, other chains not shown): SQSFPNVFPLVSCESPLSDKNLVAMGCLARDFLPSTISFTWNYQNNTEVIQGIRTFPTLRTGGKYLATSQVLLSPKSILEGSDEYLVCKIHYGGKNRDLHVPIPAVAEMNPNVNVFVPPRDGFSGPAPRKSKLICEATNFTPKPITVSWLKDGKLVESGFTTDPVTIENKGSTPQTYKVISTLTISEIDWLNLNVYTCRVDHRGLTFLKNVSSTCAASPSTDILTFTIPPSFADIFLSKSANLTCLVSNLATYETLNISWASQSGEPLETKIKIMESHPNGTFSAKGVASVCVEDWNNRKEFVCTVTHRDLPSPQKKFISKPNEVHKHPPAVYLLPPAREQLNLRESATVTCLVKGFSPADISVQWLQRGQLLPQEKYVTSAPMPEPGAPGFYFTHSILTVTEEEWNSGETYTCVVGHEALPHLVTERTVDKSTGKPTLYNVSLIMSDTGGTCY
Sequence of mouse IgM (native, on latex beads) (mouse) (P01592 22-159, chain 3 of 3, other chains not shown, further chain): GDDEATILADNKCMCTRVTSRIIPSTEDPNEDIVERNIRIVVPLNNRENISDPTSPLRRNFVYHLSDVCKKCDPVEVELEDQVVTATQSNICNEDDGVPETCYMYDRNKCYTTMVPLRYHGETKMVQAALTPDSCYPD

recombinant IpFcRI (D1-D2-D3), channel catfish soluble FcμR (receptor)
5 fold: all assays above
